From patent US12365732 (23ANDME, dated 2025)

Columns and labels:
[1] = biological target: T1, cynomolgus monkey CD96D1 D3-hFc (cynomolgus monkey); test: ELISA, coated CD96D1D3-hFc
T1 construct: also called cy-CD96D1 D3
Protocol: (§1) CD96 binding of purified hybridoma antibodies: The hu-CD96 and cy-CD96 antigen binding ELISA was performed on the purified hybridoma antibodies. Briefly, 96-well MAXISORP® flat bottom plates (Thermo Fisher Scientific, Waltham, MA; Cat #439454) were coated overnight at 4° C. with 0.5 µg/mL of hu-CD96D1 D3-hFc and cynomolgus monkey CD96D1 D3-hFc in PBS. After removing the coating solution, unspecific binding was blocked by PBS containing 1% bovine serum albumin (blocking buffer) and incubation at room temperature for one hour. Plates were then washed three times with PBS and 0.05% TWEEN®-20 (wash buffer). Serial dilution of purified antibodies in PBS containing 0.5% BSA and 0.05% Tween 20 (ELISA buffer) was added to individual wells followed by incubation at room temperature for one hour with agitation. Plates were washed three times with wash buffer, then 100 µL/well of anti-mouse IgG-HRP (Thermo Fisher Scientific, Waltham, MA; Cat #626520) in ELISA buffer was added. […] Enzymatic color development was stopped with 50 µL/well of TMB stop solution (VWR/Avantor, Radnor, PA, USA; Cat #95059-200). Plates were analyzed with a SpectraMax i3X plate reader (Molecular Devices LLC, San Jose, CA, USA) at 450 nm.

hu-CD96D1 D3-hFc = hu-CD96D1 D3-hFc (human); test: ELISA, coated CD96D1D3-hFc
Protocol: as §1

[2] = biological target: T2, recombinant hu-CD96 (M1-M503-polyHis) (human, UniProt P40200 22-519); test: ELISA, blocks hu-CD96-his binding to coated CD155-hFc
T2 construct: also called hu-CD96-his
T2 sequence: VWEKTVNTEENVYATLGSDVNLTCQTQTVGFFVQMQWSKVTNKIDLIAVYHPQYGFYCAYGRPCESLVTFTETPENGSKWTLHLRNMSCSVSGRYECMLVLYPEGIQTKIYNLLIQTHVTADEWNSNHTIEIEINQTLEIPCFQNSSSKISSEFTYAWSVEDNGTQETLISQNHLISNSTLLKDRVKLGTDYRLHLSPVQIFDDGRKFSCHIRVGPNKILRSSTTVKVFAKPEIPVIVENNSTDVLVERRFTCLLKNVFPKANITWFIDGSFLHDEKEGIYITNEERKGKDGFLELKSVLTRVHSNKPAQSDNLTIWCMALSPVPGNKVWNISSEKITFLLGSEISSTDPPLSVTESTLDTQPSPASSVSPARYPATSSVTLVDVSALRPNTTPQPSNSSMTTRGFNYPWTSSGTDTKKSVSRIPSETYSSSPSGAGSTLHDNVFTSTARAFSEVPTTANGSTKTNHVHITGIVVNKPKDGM
Protocol: as §1
CD155 receptor blocking of purified hybridoma antibodies: Human CD155 blocking ELISA was performed on purified hybridoma antibodies following the same protocol as described for CD96 (above), except that serial dilution of purified antibodies 50 µL/well (starting at 1 µM, 1:5 dilution) in assay buffer was added into the reaction.

[3] = biological target: T3, hu-CD96 (soluble, isoform 2 extracellular domain) (human, UniProt P40200 22-516, biotinylated in Octet and blocking ELISA); test: CD155 blocking ELISA
T3 construct: the assays name only hu-CD96; also called hCD96; biotinylated hu-CD96
T3 sequence: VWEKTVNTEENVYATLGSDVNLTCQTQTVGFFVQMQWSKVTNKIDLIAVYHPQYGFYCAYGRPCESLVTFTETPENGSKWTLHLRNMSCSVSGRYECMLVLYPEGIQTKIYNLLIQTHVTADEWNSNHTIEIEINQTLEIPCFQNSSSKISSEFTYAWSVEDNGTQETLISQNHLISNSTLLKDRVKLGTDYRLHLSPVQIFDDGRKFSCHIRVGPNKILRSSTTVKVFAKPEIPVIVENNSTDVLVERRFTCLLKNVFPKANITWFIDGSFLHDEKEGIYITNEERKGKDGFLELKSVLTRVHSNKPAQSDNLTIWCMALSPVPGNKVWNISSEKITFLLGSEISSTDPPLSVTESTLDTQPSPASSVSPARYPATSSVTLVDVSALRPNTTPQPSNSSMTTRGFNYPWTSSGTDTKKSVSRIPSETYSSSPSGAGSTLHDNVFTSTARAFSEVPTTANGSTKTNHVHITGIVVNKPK

hu-CD96 Fc = biological target: T4, hu-CD96 Fc (human, biotinylated in Table 16); test: SPR (Biacore), Fab
T4 construct: also called biotinylated hu-CD96-Fc

[4] = biological target: T3, hu-CD96 (soluble, isoform 2 …); test: BLI (Octet), biotin-CD96 on SA, Fab analyte
[5] = biological target: T5, hu-CD96 isoform 2 on CHO cells (human, UniProt P40200 22-585); test: FACS, Ab 10 nM
T5 construct: also called CHO-CD96 (isoform 2); CD96-CHOs
T5 sequence: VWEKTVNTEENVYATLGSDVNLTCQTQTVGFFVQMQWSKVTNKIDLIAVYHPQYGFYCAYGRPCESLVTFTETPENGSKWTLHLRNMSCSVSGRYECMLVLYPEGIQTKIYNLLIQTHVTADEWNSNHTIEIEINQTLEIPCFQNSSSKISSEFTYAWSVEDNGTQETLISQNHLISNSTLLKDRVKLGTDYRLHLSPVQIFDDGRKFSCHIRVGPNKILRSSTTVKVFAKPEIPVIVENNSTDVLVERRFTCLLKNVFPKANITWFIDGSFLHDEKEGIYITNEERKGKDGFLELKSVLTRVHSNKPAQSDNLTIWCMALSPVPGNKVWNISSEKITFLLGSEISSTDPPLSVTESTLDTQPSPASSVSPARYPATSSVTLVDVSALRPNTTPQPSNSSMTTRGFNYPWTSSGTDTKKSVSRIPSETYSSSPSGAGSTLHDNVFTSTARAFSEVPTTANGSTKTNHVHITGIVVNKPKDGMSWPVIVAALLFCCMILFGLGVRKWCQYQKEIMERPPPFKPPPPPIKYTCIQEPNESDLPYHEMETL
Protocol: (§2) Isoform 1 of hu-CD96 (Origene, catalog #RC213845) was transiently expressed in HEK293T cells following standard lipofectamine or Fugene transfection protocol. […] Cells were washed, and binding was detected by incubation with anti-mouse IgG-FITC (Biolegend, catalog #406001) for 20 minutes at 4° C. Cell binding was analyzed by flow cytometry with a CytoFLEX (Beckman Coulter). Binding curves were calculated as a percentage of cells positive for bound antibody.
(§3) Isoform 2 of hu-CD96 (DNA construct: Origene, catalog #RC221005) was expressed on a single-cell-clone-derived CHO stable cell line. Binding of the anti-CD96 antibodies to the CHO cells were determined as described above with isoform 1 of hu-CD96.

[6] = biological target: T5, hu-CD96 isoform 2 on CHO cells; test: FACS, Ab 0.0032 nM
Protocol: as §2, §3

[7] = biological target: T5, hu-CD96 isoform 2 on CHO cells; test: FACS, Ab 2 nM
Protocol: as §2, §3

[8] = biological target: T5, hu-CD96 isoform 2 on CHO cells; test: FACS, Ab 0.08 nM
Protocol: as §2, §3

[9] = biological target: T5, hu-CD96 isoform 2 on CHO cells; test: FACS, Ab 0.4 nM
Protocol: as §2, §3

[10] = biological target: T5, hu-CD96 isoform 2 on CHO cells; test: FACS, Ab 50 nM
Protocol: as §2, §3

[11] = biological target: T5, hu-CD96 isoform 2 on CHO cells; test: FACS, % positive curve
Protocol: as §2, §3

[12] = biological target: T5, hu-CD96 isoform 2 on CHO cells; test: FACS, Ab 0.016 nM
Protocol: as §2, §3

T1 sequence (chain, as listed by the source limits assumed): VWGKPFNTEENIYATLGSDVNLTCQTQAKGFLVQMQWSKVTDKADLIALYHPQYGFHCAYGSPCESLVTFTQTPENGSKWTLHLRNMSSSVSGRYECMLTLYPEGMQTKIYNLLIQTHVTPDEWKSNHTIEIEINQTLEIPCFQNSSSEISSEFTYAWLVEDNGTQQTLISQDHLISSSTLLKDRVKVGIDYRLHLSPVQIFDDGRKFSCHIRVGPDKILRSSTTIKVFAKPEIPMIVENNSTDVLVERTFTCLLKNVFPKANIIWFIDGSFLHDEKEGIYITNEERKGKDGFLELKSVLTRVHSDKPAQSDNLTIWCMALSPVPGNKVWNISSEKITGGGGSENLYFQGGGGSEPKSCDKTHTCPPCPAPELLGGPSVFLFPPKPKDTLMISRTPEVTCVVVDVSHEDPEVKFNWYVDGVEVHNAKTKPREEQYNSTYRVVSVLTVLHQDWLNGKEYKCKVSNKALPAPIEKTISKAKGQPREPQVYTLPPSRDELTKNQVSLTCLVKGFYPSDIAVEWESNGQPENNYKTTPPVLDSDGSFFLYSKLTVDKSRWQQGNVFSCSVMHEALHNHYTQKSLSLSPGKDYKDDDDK

B1: 16D9, purified hybridoma antibody (antibody, V domains shown)
VH: QVQLQQSGPELVKPGASVKISCKASGYNFNDYYINWVNQRPGQGLEWIGWIFPGRIITYYNEKFKGKATLTVDTSSNTAYMLLSSLTSEDSAVYFCARGVGEGFDYWGQGTTLTVSS
VL: ENVLTQSPAIMSATLGEKVTMNCRASSNVKYMYWYQQKSGVSPKLWIYYTSNLASGVPTRFSGSGSGTSYSLTISSVEAEDAATYYCQQFTSSPLTFGAGTKLELK
notes: murine hybridoma IgG
binding result [1]: no binding | EC50 (hu-CD96D1 D3-hFc): 50 pM | IC50 [2]: 1060 pM

B2: 10H5, purified hybridoma antibody (antibody, V domains shown)
VH: QVQLQQSGADLARPGASIKLSCKASGYTFTGYGVTWVKQSTGQGLDWIGEIYPGTVITYYNAKFKGKATLTADKSSSTAYMELRSLTSEDSAVYFCARGLGRAMDYWGQGTSVTVSS
VL: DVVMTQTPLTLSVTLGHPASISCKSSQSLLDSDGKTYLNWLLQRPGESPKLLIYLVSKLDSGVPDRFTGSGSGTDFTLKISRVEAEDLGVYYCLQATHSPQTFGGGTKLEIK
notes: murine hybridoma IgG
EC50 (hu-CD96D1 D3-hFc): 50 pM | IC50 [2]: 958 pM

B3: 12F8 (clone 12F8.12B5), purified hybridoma antibody (antibody, V domains shown)
VH: QVQLQQPGAELVTPGASVKLSCKASGFTFTNNWMHWVKQRPGQGLEWIGMIHPNSGITNINEKFKNKATVTVDKSSSTVYIQLSSLTSEDSAVYYCRSDGTYEGYFDYWGQGTPLTVSS
VL: DIVMTQSQKFMSTSVGDRVSVTCKASQNVGTAIVWYQKKPGQSPKTLIYSASTRYTGVPDRFTGSGSGTDFTLTISNVQSEDLAEYFCQQYSSSPLTFGSGTKLEIK
notes: murine hybridoma IgG
EC50 [1]: ~10000 pM | EC50 (hu-CD96D1 D3-hFc): 250 pM | IC50 [2]: 950 pM

B4: mAb1.v7.NGS8 Fab (Fab, V domains shown)
VH: EVQLVQSGAEVKKPGASVKVSCKASGFTFTNNFMHWVRQAPGQGLEWIGMIHANSGITNINEKFKNRVTMTTDTSTSTAYMELRSLRSEDTAVYYCRSDGIYEGYFDYWGQGTLVTVSS
VL: DIQLTQSPSSLSASVGDRVTITCKASQNVGTAIVWYQQKPGKAPKVLIYSASTRYTGVPSRFSGSGSGTDFTLTISSLQPEDFATYYCQQYSSSPLTFGQGTKVEIK
notes: Fab with 8xHis tag; also called W33F/P52aA/T97I
IC50 [3]: 200 pM | Kd (hu-CD96 Fc): 1800 pM | koff (hu-CD96 Fc): 2.53e-05 s⁻¹ | kon (hu-CD96 Fc): 16700 M⁻¹ s⁻¹ | Kd [4]: 100 pM

B5: 1G8, purified hybridoma antibody (antibody, V domains shown)
VH: QVQLQQSGPELLKPGASVKISCKASGYTFTDYYINWVKQRPGQGLEWIGWIFPGTEGIYYNEKFKGKATLTVDKSSTTAYMLLSSLTSEDSAVYFCAREGDYRYYSPLGYWGQGTLVTVSA
VL: DIQMNQSPSSLSASLGDTITITCRVSQDISFWLSWYQQKPGNIPKLLIYKASNLHTGVPPRFSGSGSGTDFTLTISSLQPEDIAAYYCLQSQSYPYTFGGGTKLEIK
notes: murine hybridoma IgG
% positive [5]: 35.3% | % positive [6]: 0.1% | % positive [7]: 26.2% | binding result [1]: no binding | EC50 (hu-CD96D1 D3-hFc): 72 pM | % positive [8]: 0.2% | % positive [9]: 7.1% | % positive [10]: 34.8% | IC50 [2]: 883 pM | EC50 [11]: 1040 pM | % positive [12]: 0%
